Results reported in the supplement of paper PMC9732359.
± gives the uncertainty stated by the source.

Assay: protein stability index of a GFP-peptide fusion (yeast GPS) (PSI 1-4); higher = more stable; sorted into four equal gates, so the index is relative within each strain
Summary of the method: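 For each peptide, the protein stability index sums the read frequency in every gate after multiplying it by the gate number. Read frequencies came from plasmids that were PCR-amplified from each gate and Illumina-sequenced, with reads assigned to strains by barcodes. The gates were four equal bins of GFP/Cherry fluorescence ratio applied to mid-log yeast in leucine-free medium carrying a pooled library of tiled 17-residue yeast protein peptides fused downstream of GFP on a Cherry-expressing plasmid.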

Question: What does the source list for KLSQYVQEMALGGPITK [FAS2]?
Answer: protein stability index (doa10∆): 2.6 ± 0.083; protein stability index (pdr5∆): 2.74 ± 0.055; protein stability index (san1∆): 2.96 ± 0.049; protein stability index (ubr1∆): 2.53 ± 0.031

Question: For LYGLNLTLRKAKAPSGL [FAS1], which protein stability index (doa10∆) is on record?
Answer: Its protein stability index is 2.92 ± 0.089.

Question: What about the protein stability index (pdr5∆) of the same sequence?
Answer: Its protein stability index is 2.17 ± 0.12.

Question: And the protein stability index (san1∆)?
Answer: The protein stability index was 3.53 ± 0.068.

Question: And the protein stability index (ubr1∆)?
Answer: The protein stability index was 2.42 ± 0.15.

Question: Which protein stability index (doa10∆) does the source give for LYKIFSYALSMEKDKLK [SNU114] here?
Answer: Its protein stability index is 1.84 ± 0.097.

Question: What about the protein stability index (pdr5∆) of the same sequence?
Answer: The protein stability index was 1.33 ± 0.052.

Question: And the protein stability index (san1∆)?
Answer: Its protein stability index is 1.63 ± 0.17.

Question: What about the protein stability index (ubr1∆) of the same sequence?
Answer: Its protein stability index is 1.65 ± 0.049.

Question: Which protein stability index (doa10∆) does the source give for RKLMEMENILQRCKSNA [YIL149C/MLP2] here?
Answer: The protein stability index was 2.04 ± 0.072.

Question: And the protein stability index (pdr5∆)?
Answer: The protein stability index was 2.39 ± 0.086.

Question: And the protein stability index (san1∆)?
Answer: The protein stability index was 2 ± 0.096.

Question: What about the protein stability index (ubr1∆) of the same sequence?
Answer: The protein stability index was 1.38 ± 0.095.

Question: Which protein stability index (doa10∆) does the source give for FPNIAIRPTELRLPFSA [PRP8] here?
Answer: Its protein stability index is 2.11 ± 0.084.

Question: And the protein stability index (pdr5∆)?
Answer: Its protein stability index is 1.85 ± 0.086.

Question: And the protein stability index (san1∆)?
Answer: The protein stability index was 1.93 ± 0.09.

Question: And the protein stability index (ubr1∆)?
Answer: Its protein stability index is 2.23 ± 0.076.

Question: Which protein stability index (doa10∆) does the source give for AQGVAVQLKRQPAQPRE [RPL21A] here?
Answer: Its protein stability index is 1.66 ± 0.088.

Question: And the protein stability index (pdr5∆)?
Answer: The protein stability index was 1.22 ± 0.081.

Question: What about the protein stability index (san1∆) of the same sequence?
Answer: Its protein stability index is 1.61 ± 0.084.

Question: What about the protein stability index (ubr1∆) of the same sequence?
Answer: Its protein stability index is 1.88 ± 0.07.

Question: For LEDEKMKFQESLKKVDE [SMC4], which protein stability index (pdr5∆) is on record?
Answer: The protein stability index was 2.08 ± 0.26.

Question: Which protein stability index (doa10∆) does the source give for ICYDVNDWQMLEMLKPC [RPB2] here?
Answer: The protein stability index was 2.62 ± 0.063.

Question: And the protein stability index (pdr5∆)?
Answer: The protein stability index was 2.67 ± 0.086.

Question: And the protein stability index (san1∆)?
Answer: Its protein stability index is 2.46 ± 0.073.

Question: And the protein stability index (ubr1∆)?
Answer: The protein stability index was 2.61 ± 0.062.

Question: For TASSLAHDYNNDQDMFT [YML103C/NUP188], which protein stability index (doa10∆) is on record?
Answer: The protein stability index was 3.19 ± 0.067.

Question: What about the protein stability index (pdr5∆) of the same sequence?
Answer: Its protein stability index is 3.04 ± 0.063.

Question: And the protein stability index (san1∆)?
Answer: Its protein stability index is 3.17 ± 0.046.

Question: What about the protein stability index (ubr1∆) of the same sequence?
Answer: Its protein stability index is 3.12 ± 0.055.

Question: Which protein stability index (doa10∆) does the source give for GARFDDGAGGDNEVQRT [RPT1] here?
Answer: Its protein stability index is 3.58 ± 0.2.

Question: What about the protein stability index (pdr5∆) of the same sequence?
Answer: The protein stability index was 3.4 ± 0.26.

Question: And the protein stability index (san1∆)?
Answer: The protein stability index was 3.47 ± 0.24.

Question: What about the protein stability index (ubr1∆) of the same sequence?
Answer: Its protein stability index is 3.52 ± 0.083.

Question: With IRKGPAPLNLEIPAYEF [RIP1] as the sequence, how does the protein stability index (doa10∆) read?
Answer: The protein stability index was 2.76 ± 0.062.

Question: And the protein stability index (pdr5∆)?
Answer: The protein stability index was 2.58 ± 0.083.

Question: What about the protein stability index (san1∆) of the same sequence?
Answer: The protein stability index was 2.67 ± 0.06.

Question: What about the protein stability index (ubr1∆) of the same sequence?
Answer: The protein stability index was 2.73 ± 0.062.

Question: For AETKSYDSRGVGEMKLL [YLR335W/NUP2], which protein stability index (doa10∆) is on record?
Answer: Its protein stability index is 1.94 ± 0.064.

Question: What about the protein stability index (pdr5∆) of the same sequence?
Answer: The protein stability index was 2.1 ± 0.11.

Question: And the protein stability index (san1∆)?
Answer: The protein stability index was 2.25 ± 0.097.

Question: What about the protein stability index (ubr1∆) of the same sequence?
Answer: Its protein stability index is 2.44 ± 0.079.

Question: Which protein stability index (doa10∆) does the source give for MAKVHGSLARAGKVKSQ [RPS30A] here?
Answer: Its protein stability index is 2.38 ± 0.067.

Question: And the protein stability index (pdr5∆)?
Answer: Its protein stability index is 2.7 ± 0.068.

Question: And the protein stability index (san1∆)?
Answer: Its protein stability index is 2.49 ± 0.066.

Question: And the protein stability index (ubr1∆)?
Answer: Its protein stability index is 2.44 ± 0.054.

Question: What does the source list for AEDDVIIPQDILDCVVT [YJR042W/NUP85]?
Answer: protein stability index (doa10∆): 3.18 ± 0.1; protein stability index (pdr5∆): 3.04 ± 0.065; protein stability index (san1∆): 3.36 ± 0.04; protein stability index (ubr1∆): 2.94 ± 0.07

Question: For NSKDHKKITLQLLDTSN [SIN4], which protein stability index (doa10∆) is on record?
Answer: The protein stability index was 3.07 ± 0.07.

Question: What about the protein stability index (pdr5∆) of the same sequence?
Answer: The protein stability index was 3.39 ± 0.078.

Question: What about the protein stability index (san1∆) of the same sequence?
Answer: The protein stability index was 3.04 ± 0.074.

Question: And the protein stability index (ubr1∆)?
Answer: The protein stability index was 2.96 ± 0.053.

Question: For QMLIQGVWDVDNPLRQI [BRR2], which protein stability index (doa10∆) is on record?
Answer: The protein stability index was 3.54 ± 0.13.

Question: And the protein stability index (pdr5∆)?
Answer: Its protein stability index is 3.26 ± 0.19.

Question: What about the protein stability index (san1∆) of the same sequence?
Answer: Its protein stability index is 3.47 ± 0.091.

Question: And the protein stability index (ubr1∆)?
Answer: The protein stability index was 2.78 ± 0.14.

Question: Which protein stability index (doa10∆) does the source give for FVIHIQEKNFQTGIFVY [RPB5] here?
Answer: Its protein stability index is 1.98 ± 0.062.

Question: What about the protein stability index (pdr5∆) of the same sequence?
Answer: The protein stability index was 1.58 ± 0.05.

Question: What about the protein stability index (san1∆) of the same sequence?
Answer: The protein stability index was 1.54 ± 0.16.

Question: And the protein stability index (ubr1∆)?
Answer: The protein stability index was 1.88 ± 0.081.

Question: For SLQDSIIKQENFNSVND [SSN2], which protein stability index (doa10∆) is on record?
Answer: Its protein stability index is 2.4 ± 0.11.

Question: What about the protein stability index (pdr5∆) of the same sequence?
Answer: The protein stability index was 1.83 ± 0.073.

Question: What about the protein stability index (san1∆) of the same sequence?
Answer: The protein stability index was 2.48 ± 0.078.

Question: And the protein stability index (ubr1∆)?
Answer: The protein stability index was 2.73 ± 0.098.

Question: For KVFSLDPQYLVDDLRPE [ASC1], which protein stability index (doa10∆) is on record?
Answer: The protein stability index was 2.94 ± 0.16.

Question: And the protein stability index (pdr5∆)?
Answer: Its protein stability index is 2.84 ± 0.1.

Question: What about the protein stability index (san1∆) of the same sequence?
Answer: Its protein stability index is 3.04 ± 0.09.

Question: What about the protein stability index (ubr1∆) of the same sequence?
Answer: The protein stability index was 3.15 ± 0.078.

Question: With EGNTVLEKGNNPSVKQG [SWP82] as the sequence, how does the protein stability index (doa10∆) read?
Answer: The protein stability index was 3.11 ± 0.067.

Question: What about the protein stability index (pdr5∆) of the same sequence?
Answer: The protein stability index was 3.12 ± 0.082.

Question: And the protein stability index (san1∆)?
Answer: Its protein stability index is 3.26 ± 0.065.

Question: What about the protein stability index (ubr1∆) of the same sequence?
Answer: Its protein stability index is 2.87 ± 0.064.

Question: What does the source list for ALDTNGTSATTETLTSK [SIR4]?
Answer: protein stability index (doa10∆): 2.22 ± 0.076; protein stability index (pdr5∆): 2.19 ± 0.066; protein stability index (san1∆): 2.9 ± 0.065; protein stability index (ubr1∆): 1.93 ± 0.045

Question: What does the source list for PSPPNVIITDGTLLRED [YDL088C/ASM4]?
Answer: protein stability index (doa10∆): 2.71 ± 0.036; protein stability index (pdr5∆): 2.81 ± 0.041; protein stability index (san1∆): 2.97 ± 0.045; protein stability index (ubr1∆): 2.91 ± 0.034

Question: For YNTNFNLLLRELNVEKL [SRP72], which protein stability index (doa10∆) is on record?
Answer: Its protein stability index is 2.9 ± 0.091.

Question: What about the protein stability index (pdr5∆) of the same sequence?
Answer: Its protein stability index is 3.18 ± 0.11.

Question: And the protein stability index (san1∆)?
Answer: Its protein stability index is 2.89 ± 0.089.

Question: And the protein stability index (ubr1∆)?
Answer: The protein stability index was 3.26 ± 0.056.

Question: Which protein stability index (doa10∆) does the source give for SAWIWPMDEETKLYFDV [RPC25] here?
Answer: The protein stability index was 2.17 ± 0.075.

Question: And the protein stability index (pdr5∆)?
Answer: The protein stability index was 2.4 ± 0.11.

Question: What about the protein stability index (san1∆) of the same sequence?
Answer: The protein stability index was 2.49 ± 0.092.

Question: And the protein stability index (ubr1∆)?
Answer: Its protein stability index is 2.41 ± 0.15.

Question: With ITNTDETITTKRVPNPN [SWP82] as the sequence, how does the protein stability index (doa10∆) read?
Answer: The protein stability index was 3.09 ± 0.077.

Question: And the protein stability index (pdr5∆)?
Answer: Its protein stability index is 3.25 ± 0.098.

Question: And the protein stability index (san1∆)?
Answer: Its protein stability index is 3.13 ± 0.078.

Question: What about the protein stability index (ubr1∆) of the same sequence?
Answer: The protein stability index was 3.21 ± 0.082.

Question: Which protein stability index (doa10∆) does the source give for RRFYKNWYKSKKKAFTK [RPL3] here?
Answer: Its protein stability index is 2.98 ± 0.16.

Question: And the protein stability index (pdr5∆)?
Answer: The protein stability index was 2.8 ± 0.11.

Question: What about the protein stability index (san1∆) of the same sequence?
Answer: The protein stability index was 1.6 ± 0.2.

Question: And the protein stability index (ubr1∆)?
Answer: Its protein stability index is 1.78 ± 0.08.

Question: Which results are given for IFAGAFVFQTVFDTAIT [QCR9]?
Answer: protein stability index (doa10∆): 1.61 ± 0.048; protein stability index (pdr5∆): 1.35 ± 0.033; protein stability index (san1∆): 1.48 ± 0.076; protein stability index (ubr1∆): 1.67 ± 0.04
